Results: patent US20170095575A1 (BIOMED VALLEY DISCOVERIES, published 2017)

T1: hTEM8-AP (Homo sapiens, UniProt Q9H6X2 33-321)
T1 sequence: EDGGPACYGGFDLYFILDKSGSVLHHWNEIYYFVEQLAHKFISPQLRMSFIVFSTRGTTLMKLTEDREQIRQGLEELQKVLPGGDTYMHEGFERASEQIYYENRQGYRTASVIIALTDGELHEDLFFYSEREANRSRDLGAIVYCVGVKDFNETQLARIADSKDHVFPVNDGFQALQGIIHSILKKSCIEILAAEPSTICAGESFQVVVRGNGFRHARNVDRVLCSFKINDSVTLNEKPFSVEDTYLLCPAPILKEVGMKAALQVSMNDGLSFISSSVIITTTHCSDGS

T2: mTEM8-Fc (UniProt Q9CZ52 31-319, limits assumed)
T2 construct: not shown: Fc part
T2 sequence (looked up): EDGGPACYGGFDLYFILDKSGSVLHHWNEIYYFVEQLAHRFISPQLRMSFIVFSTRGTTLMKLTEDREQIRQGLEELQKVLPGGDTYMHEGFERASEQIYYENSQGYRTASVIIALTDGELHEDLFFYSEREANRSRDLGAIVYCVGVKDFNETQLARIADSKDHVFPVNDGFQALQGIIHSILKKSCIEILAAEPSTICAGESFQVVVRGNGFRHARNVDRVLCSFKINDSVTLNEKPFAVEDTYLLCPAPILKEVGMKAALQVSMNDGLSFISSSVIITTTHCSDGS


Tests used:
hTEM8-AP = biological target: T1, hTEM8-AP; assay: Biacore affinity measurement of Fab
mTEM8-Fc = biological target: T2, mTEM8-Fc; assay: Biacore affinity measurement of Fab

Kd (hTEM8-AP) [nM]	koff (hTEM8-AP) [s⁻¹]	kon (hTEM8-AP) [M⁻¹ s⁻¹]	Kd (mTEM8-Fc) [nM]	koff (mTEM8-Fc) [s⁻¹]	kon (mTEM8-Fc) [M⁻¹ s⁻¹]	Binder
1.57	0.000953	607000	3.74	0.0029	775000	M830 anti-TEM8 fragment antigen-binding (Fab) (Fab, V domains shown, also called M830 Fab) VH: EVQLVESGGGVVQPGRSVRLSCAASGFTFSTYTMHWVRQAPGKGLEWVAIISNDGSNKYYADPVRGRFTISRDNSKNTLYLQMNSLRAEDTAVYYCVRGSSWYRGNWFDPWGQGTLVTVSS VL: DIQMTQSPSSLSASVGDRVTIACRASQTISRYLNWYQQKPGKAPKLLIYAASSLQSGVSSRFSGSGSGTEFTLTISSLQPEDFATYFCQQTYSPPITFGQGTRLEIKR
0.0591	0.00018	3.05e+06	0.0526	8.94e-05	1.7e+06	M825 anti-TEM8 fragment antigen-binding (Fab) (Fab, V domains shown, also called M825 Fab) VH: QVQLVQSGAEVKKPGTSVKVSCKVPGYTFSSYAISWVRQAPGQGLEWMGGIIPIFGTTNYAQKFQGRVTITGEESTSTVYMELSSLRSEDTAVYYCARDTDYMFDYWGQGTLVTVSS VL: SSELTQDPVVSVALGETVSITCQGDNLRDFYASWYQQKPGQAPLLVMYGKNRRPSGIPDRFSGSTSGNTLSLTITGAQAEDEADYYCSSRDNSKHVVFGGGTKVTVL
